Results on one molecule are retold here after patent publication CN108059680A (BEIJING DONGFANG BIOTECH CO LTD, dated 2018).

The assay concerns the target T1, CD20 (UniProt P11836 1-297, limits assumed).
T1 construct: whole, on cells; also called 细胞表面CD20; Raji细胞(过表达CD20细胞系)
T1 sequence (looked up): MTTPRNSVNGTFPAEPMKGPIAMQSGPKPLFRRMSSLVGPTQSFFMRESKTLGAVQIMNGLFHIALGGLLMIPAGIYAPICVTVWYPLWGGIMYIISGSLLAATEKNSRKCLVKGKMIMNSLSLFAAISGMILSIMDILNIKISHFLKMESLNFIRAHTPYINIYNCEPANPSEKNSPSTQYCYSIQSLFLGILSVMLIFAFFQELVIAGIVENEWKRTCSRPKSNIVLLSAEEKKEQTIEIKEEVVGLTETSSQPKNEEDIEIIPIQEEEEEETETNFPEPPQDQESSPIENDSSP
Kind of assay: flow cytometry on Raji cells (CD20-overexpressing), Alexa488 anti-human IgG-Fc detection. Background: A flow cytometer gives signals particle by particle.

B1: JY052 (bispecific antibody, human IgG4 S228P, kappa)
light: DIVMTQTPLSLPVTPGEPASISCRSSKSLLHSNGITYLYWYLQKPGQSPQLLIYQMSNLVSGVPDRFSGSGSGTDFTLKISRVEAEDVGVYYCAQNLELPYTFGGGTKVEIKRTVAAPSVFIFPPSDEQLKSGTASVVCLLNNFYPREAKVQWKVDNALQSGNSQESVTEQDSKDSTYSLSSTLTLSKADYEKHKVYACEVTHQGLSSPVTKSFNRGEC
heavy: QVQLVQSGAEVKKPGSSVKVSCKASGYAFSYSWINWVRQAPGQGLEWMGRIFPGDGDTDYNGKFKGRVTITADKSTSTAYMELSSLRSEDTAVYYCARNVFDGYWLVYWGQGTLVTVSSASTKGPSVFPLAPCSRSTSESTAALGCLVKDYFPEPVTVSWNSGALTSGVHTFPAVLQSSGLYSLSSVVTVPSSSLGTKTYTCNVDHKPSNTKVDKRVESKYGPPCPPCPAPEFLGGPSVFLFPPKPKDTLMISRTPEVTCVVVDVSQEDPEVQFNWYVDGVEVHNAKTKPREEQFNSTYRVVSVLTVLHQDWLNGKEYKCKVSNKGLPSSIEKTISKAKGQPREPQVYVLPPSQEEMTKNQVSLLCLVKGFYPSDIAVEWESNGQPENNYLTWPPVLDSDGSFFLYSRLTVDKSRWQEGNVFSCSVMHEALHNHYTQKSLSLSLG
chain: not shown
notes: Three-chain bispecific: anti-CD20 light-heavy pair plus anti-CD3 single-chain Fab-Fc, joined by hinge disulfides and a knob-into-hole structure in CH3; also called 抗CD20×CD3的双特异抗体; 针对CD20和CD3的双特异性抗体
As to B1, the binding result is “binds”.
